This data set is described as follows: soluble on expression in E. coli; label from the status in PepcDB or PDB records.
“MVHRLDISSEMIAFFKNCAKNGNYTPFLSNYRGLIRDIGQQLEKVSLPNNSLEKLMVKHFANCFVALHTMNSLDELAASAPKFVADFKQAIGNKKTLKELHDNFKSSDTKQQGLNRKLTNKMERNRSEMKQFKMEMMSSFNGLKQNMDTKMEEMMQLMRALIQDLTSQKLAQNPESSKCSFPNYGLEIQKKFEDMIQNMKSQTGSVFELKLKEIEQLEAEAENTIPKIPKKAAGSSSEH”: the “soluble on expression in E. coli” value is “not soluble”.

Regarding “MIDLAPLVRRLAGTPLAEWANGLQAQLDTKMSKGHGDLQRWQSALDALPALQPEKVDLTDSFTLETECDGETRTVLRKALLGLSPWRKGPFNVFGVHIDTEWRSDWKWSRVSPHLDLKGKRVLDVGCGNGYYQWRMLGAGADSVIGVDPNWLFFCQFQAMQRYLPDLPAWHLPFALEDLPANLEGFDTVFSMGVLYHRKSPIDHLLALKDCLVKGGELVMETLVIPGDVHQVLVPEDRYAQMRNVWFLPSVPALELWMRRAGFTDVRCVDVSHTTVEEQRSTEWMRFQSLGDYLDPNDHSKTVEGLPAPMRAVIVGRKP”, the “soluble on expression in E. coli” value is reported as “not soluble”. For the sequence “MGSDKIHHHHHHMGYKNILIDFDDTIVDFYDAEEWAFHYMANVFNHKATKDDFLTFKKINHQHWEAFQQNKLTKSEVLSERFVNYFKHHQMEVDGHRADVLFRNGLAEAKVKYFDQTLETIVELSKRHDLYIVTNGVTETQKRRLNQTPLHKYIKKIFISEETGYQKPNPEFFNYVFNDIGEDERQHSIIVGDSLTSDILGGINAGIATCWFNFRGFDHNPGIIPDYEINSWKQLNDIVR”, the “soluble on expression in E. coli” value is recorded as “not soluble”. Next, “MKVGIVGGGIVGLFTAYYLAKEGIKDIIIYEKGFLGAGSIHAAGLIEPYRFDKINTLSMIKKMLKYKMNGSTDIKEVDKLWLVELIKNLEKDPPGEAWDTMREMAKFSLSEYKRIAEEKNDFDYHEDGLLELYYNSKEFESGIEDEKKSPFNPKFEIEEIKGFAGGLFFPELSRISTEKFIDRISREIVSNIKVKNEEVIKVSDEGYIDGEKYDLVVVAAGIWSRILKIPLTAFKGYGYRVKGVSKLNRAAVIVDYGLAISPLSDHIKITGGFDADFSIDSKRAEDFLKKAEELVDIQYIIDLNMGFRPCSPDGFPVIGKRNNLVLVTGACRLGWSYGPAMGRYATDLALGKAKDLGYISRYYHELEHHHHHH”: “not soluble”; “MAETHSLGTKILIKIIRLYQIMISPFIGARCRFVPTCSCYGIEALKTHGLLKGGWLTLKRVLKCHPLNAGGFDPVPPKTNNNDEKK”: “not soluble”; “MDPKFQRVALSDGHFIPVLGFGTYAPEEVPKSKAMEATKIAIDAGFRHIDSAYFYKNEKEVGLAIRSKIADGTVKREDIFYTSKLWCTFHRPELVRPSLEDSLKNLQLDYVDLYIIHFPTALKPGVEIIPTDEHGKAIFDTVDICATWEAMEKCKDAGLAKSIGVSNFNRRQLEMILNKPGLKYKPVCNQVECHPYLNQGKLLEFCKSKGIVLVAYSALGSHREPEWVDQSAPVLLEDPLIGALAKKHQQTPALIALRYQLQRGIVVLAKSFTEKRIKENIQVFEFQLPSEDMKVIDSLNRNFRYVTADFAIGHPNYPFSDEY”: “soluble”. In the case of “MSKNRQIQGCEVNECLHLDSTKPKSMLNKVKSVHSGFLGEPCVSVCCVCASSPVFLRRYFEWQPFSPREPHVWSTDRPLKVIDLTHLLFTEQMSDCVLGCTPQHCRLQSPVFARDTVLEVEVLLYSSLRFAHCSVDTRRPAFCSL”, the “soluble on expression in E. coli” value is on record as “not soluble”. Consider “MAHHHHHHMNLRSLVPSDKQLTEEQQSHIQDLQDEIDEIWSRRGDYKIDDKAWEHMPLFMETITEEDMQKNADCAALASIAYDEVPPEDIAESRKQHGNRAIQLALNPEQVNKENLARAAAHCYTEGLNAKCKDPILNSQLYANRSLAQYIIQNYGHGLEDAQRAIILNPDYSKAYYRAARCAERVKKYDLAIDLLSKGRCTNPPPEGIALEEFEELERVCREGMKKFQKKEKEDSIRTRVRAAETSSLMRALTSYGIRLSPTPEVSSEQMGVYGQHQPYFDAVGLLHVPILFMYDEYQQTDFMQDVTCDVSTAELLDEIMPFPWDDRGRYRHMNEVVVFFKIDDGVKMAEYYEVDLSWPLMEVFRSESYKMPMLLPVLHVVCRSSELLQHWKPQKPR”, for which the “soluble on expression in E. coli” value is recorded as “not soluble”. The result for “MAHHHHHHMHSAIRFSGSSSRSTSSSMEVASAAAEPPLSVSSIPRRRSADRDDALSLLEPAVRLPTSTTSKASALSQSSLRSGSHPSAAVYGDNPGSAHTASSSYTRKGDNGDALLHQPPGNPQTRVPSSFAATVNTRASEASSHSARGRAGSSRRDNLDPAAPQSRTATQPPLTHPGSVFANIPWIPPPPIYGTPLPDSSNMNRHYAYYYDPRGATLRAPFCYPDEVPLRAQEHHSDVSGAEWPKPSDLPLPSVFPMPPHVLPQLSLPAVSAPTAEAAARGMVAAPHAWAIPPPVLYPPPPPPPWWFYGTHPLPLPASSSGSSASSTGSSRHASSSSPVSARSTTRPSRHPSANAARPHAEAAAPSRHGVAVPAGSVETPVAAASRGDAGGGHAAKKPSVASSGSRYAAGHTVGTGRAARRSMGSLSASSATTSPWSATTTTAHSDLPQRVERRVYASSGSGSSEMQRSATGQTVQVAPRRTNVAQCVPPDQLQVYGDDVVQERGYSSVMTRMKHAVSAAEAYLEKMEHLYRRLRSRYEEVVMSPGKVTRYGADITADEGVEEKRHRRTAPAATTRATRGPPEKGLLHPPERPFSRQTHLQPTAPLPHAERPVSPALSAAQPSAVEPSPPLSSSSSATSATSLRRELHLLESQWQRLEELKRHGGGGTTTAVSMPAALSPSTATSTAGEDPFTNRRFLQLIKDRKHLLTSAT” reads “not soluble”; that for “MIVALGADLVEIARVERLLSRHGERALRRLFHEEEVAYALARQNPFPSLAARLAAKEAFQKCWPESLSWKEVWVGMEGKRPALRFAPRIEARMAEEGLFAHLSLSHERSHALAVVVLEARARGGG”, “soluble”. As for “MNVSTSTFQTRRRRLKKVEEEENAATLQLGQEFQLKQINHQGEEEELIALNLSEARLVIKEALVERRRAFKRSQKKHKKKHLKHENANDETTAVEDEDDDLDEDDVNADDDDFMHSETREKELESIDVLLEQTTGGNNKDLKNTMQYLTNFSRFRDQETVGAVIQLLKSTGLHPFEVAQLGSLACDTADEAKTLIPSLNNKISDDELERILKELSNLETLY”, the “soluble on expression in E. coli” value is reported as “soluble”. The result for “MGHHHHHHSHMPKVKRSRKAPPDGWELIEPTLDELDQKMREAETEPHEGKRKVESLWPIFRIHHQKTRYIFDLFYKRKAISRELYEYCIKEGYADKNLIAKWKKQGYENLCCLRCIQTRDTNFGTNCICRVPKSKLEVGRIIECTHCGCRGCSG” reads “soluble”. Regarding “MGSDKIHHHHHHMQRRVPLSPDAAHCSSCMLGHVCVPVGMPANEVEKLDELVKERVRVERGKSLYELDDPLDAVYGVRYGSLKTQLEDSSGQLQITGFHLPGEIVGLDGMIESKHVSSAVALEDSEVCVIRLPEIDRVSTQLPSLQQQFRRLMSREITRSHQMLATVGAMRSEQRLAAFLLNLSQRYAALGYSSTEFVLRMSREEIGNYLGLTLETVSRLFSRFGREGLIRINQREVRLIDLPGLKQLIGQESC”, the “soluble on expression in E. coli” value is “not soluble”. As for “MKIKTRFAPSPTGYLHVGGARTALYSWLFARNHGGEFVLRIEDTDLERSTPEAIEAIMDGMNWLSLEWDEGPYYQTKRFDRYNAVIDQMLEEGTAYKCYCSKERLEALREEQMAKGEKPRYDGRCRHSHEHHADDEPCVVRFANPQEGSVVFDDQIRGPIEFSNQELDDLIIRRTDGSPTYNFCVVVDDWDMEITHVIRGEDHINNTPRQINILKALKAPVPVYAHVSMINGDDGKKLSKRHGAVSVMQYRDDGYLPEALLNYLVRLGWSHGDQEIFTREEMIKYFTLNAVSKSASAFNTDKLLWLNHHYINALPPEYVATHLQWHIEQENIDTRNGPQLADLVKLLGERCKTLKEMAQSCRYFYEDFAEFDADAAKKHLRPVARQPLEVVRDKLAAITDWTAENVHHAIQATADELEVGMGKVGMPLRVAVTGAGQSPALDVTVHAIGKTRSIERINKALDFIAERENQQ”, the “soluble on expression in E. coli” value is given as “soluble”. In the case of “MSQVTRVYAGRLAGMIVRGPDTDAIGRVRDVIVNVRPNGQPSRVLGLVVEMMNNRKIFLPMLRVAAIEPQEITLVSGSVSLRAYKPRNGEVAIIADIVGSKVHIDDPELDHLHGRPVEVADIELERTRTRDWAISRVAVIGERPKFGRRPELFTCPWSHVHGISAGGVGITDAAAELIAEFEDMRPADIATVLYELPDAQRANVAKELDDDRLADVLQEMSEDRQAELIETLDIERAADVLEEMDPDDAADLLGELDDDKADVLLELMDPEESAPVRRLMSFSPDTVGALMTPEPLILSPQTTVAEALALARNPDLPTSLASIVFVVRPPTATPTGKYLGCVHLQKLLREPPSELVSGILDPDLPPLWASDSQETAARYFATYNLVCGPVVDNDNHLLGAVAVDDLLDHMLPDDWRDTGIRPDETPKEV”, the “soluble on expression in E. coli” value is “not soluble”. Next, “MMYALIVCNGSIIDYSFYRKFFDEADFIVCADGGALHLQRLGIKPDVLLGDFDSIESEHLEYYMKQNVEILKFPAEKDMTDTELAVNTAIDRGYKNIVIIGGTGTRLDHTLSNIFLLKLMLDRGVKGRIINEYNEMFLINDSTEIEAEDGCYLTLLPLTSKVEGITTEGLYYPLRGEAIEMGSTRGVSNCFVEKKARISITSGILIAIKTRE”: “not soluble”; “MGSDKIHHHHHHYLNTLQRELENAGIESRLVRRFGYTQEAVDWADAVFSAGGDGTFLMASSRVRTKHKPVIGINTDPQGSEGYMCLMRKLPEENLAGALKKLFSGNFEWLNRQRIRITVTGDDGISDAIELHDQQLNRDPATTRWTDNPRSPAREIEECMSLSPPVKKRMISEAVEIPEVEKETVELPVLALNEVFIGESLSSRVSYYEIGINDAQMLKQKSSGITICTGTGSTSWNFNINKLTEQCVQDLMKIVAEHCNLPQIPHGDKNAVSEICTKFNQQLIFDPDRKQLAFSVRDPIFNATFPPTDPRGFADKICIKSRGYDAHLVIDGGISYRFNDGSEAVMEVRDEDTLRTVVFR”: “not soluble”. As to “MKETTIYGRLVMAVKNTAQVVIGGKIITLGGYESEEYFQKVASYINNKIAELSEMPGYTRQPVETKHTLLSLNVTDDYFKAKKQAEIFEQDLQQKDQEMYELKHELIALRMKIEETEKNAQEAQQQKELLEGKVKELNDEIDKLLK”, the “soluble on expression in E. coli” value is given as “not soluble”. Next, “MGSSHHHHHHSSGLVPRGSHMGEMLERQKKRLPSKAKYLKYTASITETGNHEADSSVIFRPHHSDVTCSNARRAESRTLPQICSCILLDHGRRTRPEVRTGMVSLHGSFKGFPCFGIRRGISHVLPGQKLRGSCDNWKKRQN”: “soluble”; “MNLSTKQKQHLKGLAHPLKPVVLLGSNGLTEGVLAEIEQALEHHELIKVKIATEDRETKTLIVEAIVRETGACNVQVIGKTLVLYRPTKERKISLPR”: “not soluble”. On to “MTDESDALCATEKEIMHATHRALVNSGYAELSISRISDELDKAKSTIYHYYDSKDALLLRFLRFTVDRFEATINTSIGDNPKEDLNHIISTLLPCQLPEEKRQLHSVLVTLSPQALERAVFREQFTEIDTRLATIIEKTVRRGVDADVFRDVDPTHAAEHILATIKGTMYSRLTTNREAATAAAKASLFSYIDSHLIS”, for which the “soluble on expression in E. coli” value is reported as “not soluble”. On to “MAHHHHHHMVFDVNGDFVENEQQFIEAARKSINLTIKLQNTSGMSELIARVLEDDDRRASGAISTSALDFDELLRTTPRFNFLSGDHPIFRRYNKRLAQQRQAAALIAQRTAEAELQRQAEIKERLRKALEEEAAVQKKKEQEKAELQRMRAAQEPARFVPEEPFLKIIKDESSFGQVERELKKPETAAEPKVESKAEGAASEAITNTATGTSTTLSNDVAATISAEELLVLVGVPTETMETTTPALEDLAEAIALPSSENTATYVALPAEEYTLCSGERVVSVIKKRSGPIPAPPPGTPPVINKAAASRLSEPVKRVKPVEKMVRNCTPSNEQPYKSRHRSRSPRSRRRSERDHSSKECSRRHRRDEPSSHRHHKNSRDSKHRR”, for which the “soluble on expression in E. coli” value is “not soluble”.

(Values after the DeepSol protein solubility set.)
